# Test results: the nanobody polyreactivity screen of Harvey et al. (2022)
# Experiment: yeast display, Sf9 membrane polyspecificity reagent, FACS + sequencing; frameworks hold sequencing errors
# How it was run: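 Using colony PCR, genes from sorted yeast display clones were amplified, then sequenced on MiSeq at 2 × 250 and filtered by CDR length. The clones had been stained with 10% biotinylated, detergent-solubilized Sf9 membrane reagent for 1 hour at 4 °C and sorted by FACS into low and high (top ~1%) gates on anti-HA and streptavidin fluorescence. Polyreactivity labels come from the gate of origin.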
row,Sequence,polyreactivity (PSR sort gate)
1,QVQLVESGGGLVQAGGSLRLSCAASGSTFGYYAMGWYRQAPGKERELVAAIRSSGGGTYYADSVKGRFTISRDNAKNTVYLQMNSLKPEDTAVYYCATDAPILVNAEYDEWLEYDYWGQGTQVTVSS,low polyreactivity
2,QVQLVESGGGLVQAGGSLRLSCAASGSTFGYYAMGWYRQAPGKERELVAAITGRGGSTYYADSVKGRFTISRDNAKNTVYLQMNSLKPEDTAVYYCAVGKYRLYYSGAYGYWGQGTQVTVSS,high polyreactivity
3,QVQLVESGGGLVQAGGSLRLSCAASGSTFGYYAMGWYRQAPGKERELVAAITKRSGRTYYADSVKGRFTISRDNAKNTVYLQLNSLKPEDTAVYYCAARYTFDRWKFGYWGQGTQVTVSS,high polyreactivity
4,QVQLVESGGGLVQAGGSLRLSCAASGSTFGYYAMGWYRQAPGKERELVAGISSGGTTKYADSVKGRFTISRDNAKNTVYLQMNSLTPVDTAVYYCAARFRRTRVTYYYWGQGTQVTVSS,high polyreactivity
5,QVQLVESGGGLVQAGGSLRLSCAASGSTFGYYAMGWYRQAPGKERELVAVITRSGDRTYYADSVKGRFTISRDNAKNTVYLQMNSLKPEDTGVYYCAARATSAGGVAEYYWGQGTQVTVSS,high polyreactivity
6,QVQLVESGGGLVQAGGSLRLSCAASGSTFHIYAMGWYRQAPGKERELVAAINRSGGSTRYADSVKGRFTISRDNAKNTVYLQMNSLKPEDTAVYYCATKRSTGYYWGQGTQVTVSS,high polyreactivity
7,QVQLVESGGGLVQAGGSLRLSCAASGSTFHLNAMGWYRQAPGKERELVAAISWDGSSTSYADSVKGRFTISRDNANNTVYLQMNSLKPEDTAVYYCAADDTLDRVPTTFIDGSPGYGYWGQGTQVTVSS,low polyreactivity
8,QVQLVESGGGLVQAGGSLRLSCAASGSTFHLYAMGWYRQAPGKEREFVAAIRGRGGNTYADSVKGRFTISRDNAKNTVYLQMNSLKPEDTAFYYCAAPLLRDLRSPYSYNYWGQGTQVTVSS,low polyreactivity
9,QVQLVESGGGLVQAGGSLRLSCAASGSTFHRNAMGWYRQAPGKERELVAAISWRGGSTYYADSVKGRFTISRDNAKNNVYLLMNSLKPEDTAVYYCNAVERYWDYGYWGQGTQVTVSS,low polyreactivity
10,QVQLVESGGGLVQAGGSLRLSCAASGSTFHRYAMGWSRQAPGKERELVAAISLSGGRTYYADSVKGRFTISRDNAKNTVYLQMNSLKPEDSAVYYCNALVPSGNGDHDYWGQGTQVTVSS,high polyreactivity
11,QVQLVESGGGLVQAGGSLRLSCAASGSTFHSYVMGWYREAPGIERELVAAITSRGGSTNYADSVKGRFTISRDNAKNTVYFQMNSLKPEDTAVYYCAAEWLYPLDGGYPRPMDYWGQGTQVTVSS,low polyreactivity
12,QVQLVESGGGLVQAGGSLRLSCAASGSTFHVNAMGWYRQAPGKEREFVAAISWRTGSTYYADSVKGRFTISRDNAKNTVYLQMNSLKPEDTAVYYCAAKRSYSNYDYWGQGTQVTVSS,high polyreactivity
13,QVQLVESGGGLVQAGGSLRLSCAASGSTFHVYAMGWYRQAPGKEREFVASITTRGGSTYYADSVKGRFTISRDNAKNTVYLQMNSLKPEDTAVYYCNATPYPGGNGRWRFWKSYGYWGQGTQVTVSS,high polyreactivity
14,QVQLVESGGGLVQAGGSLRLSCAASGSTFHWYAMGWYRQAPGKERELVAVITWSGGSTYYADSVKGRFTISRDNAKNTVYLQMNSLKPEDTAVYYCARDWYRYKLWLFRGQDGDYWGQGTQVTVSS,low polyreactivity
15,QVQLVESGGGLVQAGGSLRLSCAASGSTFHYYAMGWYRQAPGKERELVAAISSSGVSTYYADSVKGRFTISRDNAKNTVYLQMNSLKPEDTAVYYCNRASVFHYRWYYYWGQGTQVTVSS,high polyreactivity
16,QVQLVESGGGLVQAGGSLRLSCAASGSTFHYYAMGWYRQAPGKERELVATITSSGCSTYYADSVKGRFTISRDNAKNTVYLQMNSLKPEDTAVYYCNKKSYYRDYGRYDYWGQGSQVTVSS,low polyreactivity
17,QVQLVESGGGLVQAGGSLRLSCAASGSTFIANALGWYRQAPGKEREFVAAITWSGGSTYYADSVKGRFTLSRDNAKNTVFLQMNSLKPEDTAVYYCAKKGRTARGRYDYWGQGTQVTVSS,low polyreactivity
18,QVQLVESGGGLVQAGGSLRLSCAASGSTFIAYAMGWYRQAPGKESELVAAITSGDGTYYADSVKGRFTISRDNAKNTVYLQMNSLKPEDTAVYYCAVGYYWNEPLYWYGDFDYWGQGTQVTVSS,high polyreactivity
19,QVQLVESGGGLVQAGGSLRLSCAASGSTFIDYAMGWYRQAPGKEREFVAGISSGDSTDYADSVKGRFTISRDNAKNTVYLQMNSLKPEDTAVYYCNADWNPTERWFYWYTPLGYDYWGQGTQVTVSS,low polyreactivity
20,QVQLVESGGGLVQAGGSLRLSCAASGSTFIDYAMGWYRQAPGKERELVAAITNGGNTKYADSVKGRFTISRDNAKNTVYLQMNSLKPEDTAVYYCAREPSIFTPSYDYWGQGTQVNVSS,low polyreactivity
21,QVQLVESGGGLVQAGGSLRLSCAASGSTFIDYGMGWYRQAPGKERELVAAIDLDSGDTYYADSVKGRFTISRDNAKNTVYLQMNSLKPEDTAVYYCAAQYWYRYNYWGQGTQVTVSS,low polyreactivity
22,QVQLVESGGGLVQAGGSLRLSCAASGSTFIGHAMGWYRQAPGIERELVATITSGDSTYADSVKGRFTISRDNAKNTVYLQMNSLKPEDTAVYYCNADPWDIGSSFELDYWGQGTQLTVSS,low polyreactivity

row,Sequence,polyreactivity (PSR sort gate)
1,QVQLVESGGGLVQAGGSLRLSCAASGSTFIINAMGWYRQAPGKERELVAAITIGDITNYADSVKGRFTISRDNAKNTVYLQMNSLKPEDTAVYYCNKDALLFWHRDYVLDTYEYWGQGTQVTVSS,low polyreactivity
2,QVQLVESGGGLVQAGGSLRLSCAASGSTFILYAMGWYRQAPGKERELVAAITTSGGSTYYADSVKGRFTISRDNAKNTVYLQMKSLKPEDTAVYYCNGGLSVTHGTSIPFRNYEYWGQGTQVTVSS,low polyreactivity
3,QVQLVESGGGLVQAGGSLRLSCAASGSTFINYAMGWYREAPGKERELVAAISKGGGSTYYADSVKGRFTISRDTAKNTVYLQINSLKPEDTAVYDCARARSGGSHREYYWGQGTQVTVSS,high polyreactivity
4,QVQLVESGGGLVQAGGSLRLSCAASGSTFINYAMGWYRQAPGKERELVAAYADSVKGRFTISRDNAKNTVYLQMNRLKPEDTAVYDCNAVTGECGQGTQVTVSS,low polyreactivity
5,QVQLVESGGGLVQAGGSLRLSCAASGSTFIRNAMGWYRQAPGKERELVAAISSSGGRTYYADSVKGRFTISRDNAKNTVYLQMNSLKPEDTAVYYCAARAVGAYYSSYSHGAGYYYWGQGTQLTVSS,high polyreactivity
6,QVQLVESGGGLVQAGGSLRLSCAASGSTFIRYTMGWYRQAPGKERELVAAISTGGTNYADSVKGRFTISRDNAKNTVYLQMYSLKPGDTAVYYCAKPSSPSLGGVSDRIYWGQGTQVTVSS,low polyreactivity
7,QVQLVESGGGLVQAGGSLRLSCAASGSTFISNAMGWYRQAPGKERELVASITWTDVSTYYADSVKGRFTISRDNAKNTVYLQMNSLKPEDTAVYYCAAVTGLSSNDGYDYWGQGTQVTVSS,low polyreactivity
8,QVQLVESGGGLVQAGGSLRLSCAASGSTFITNIMGWYRQAPGKERELVAAISYIDGTTYYADSVKGRFTISRDYAKNTVYLQMNSLKADDTAVYYCAAVVSKSSFDYWGQGTQVTVSS,low polyreactivity
9,QVQLVESGGGLVQAGGSLRLSCAASGSTFITYAMGWYRQAPGKERELVAAISWSGVGTYYADSVKGRFTISRDNAKNTVYLQMNSLKPEDTAVYYCAVDRIYYYTYGVYYWGQGTQVTVSS,high polyreactivity
10,QVQLVESGGGLVQAGGSLRLSCAASGSTFIVNAMGWYRQAPGKERELVAAISRSGSDTYYADSVKGRFTISRDNAKNTVYLQMNSLKPEDTAVYYCAARWSYRSLARYNYWGQGTQVTVSS,low polyreactivity
11,QVQLVESGGGLVQAGGSLRLSCAASGSTFIVNAMRWYRQAPGKERELVAAIDWSGGSTYYADSVKGRFTISRDNAKNTVYLQMNSLKPEDTAVYYCAAQYEIPAGNSTYDYWGQGTQVTVSS,low polyreactivity
12,QVQLVESGGGLVQAGGSLRLSCAASGSTFIVYAMGWYRQATGKERELVAAISLDGGSTYYADSVKGRFTISRDNAKNTVYLQMNSLKPEDTAVYYCNADYYANSITYDSWGQGTQVTVSS,low polyreactivity
13,QVQLVESGGGLVQAGGSLRLSCAASGSTFIWNAMGWYRQAPRKERELVATITYSGGSTYYADSVKGRFTISRDNAKNTVYLQMNSLKPEDTAVYYCATDATIPKCYTYPGEMDYWGQGTQVTVSS,low polyreactivity
14,QVQLVESGGGLVQAGGSLRLSCAASGSTFIYYTMGWYRQAPGKERELVAAISWRGGSTYYADSVKGRFTIARDNAKNTVYLQMNSLKPEDTAVYYCATGYLYFTSYRYNYWGQGTQVTVSS,low polyreactivity
15,QVQLVESGGGLVQAGGSLRLSCAASGSTFKGTAMGWYRQAPGNERELVAAINRSGTSTYYAHSVKGRFTISRDNAKNTVYLQMNSLKPEDTAVYYCANKYFGHRFDYWGQGTQVTVSS,high polyreactivity
16,QVQLVESGGGLVQAGGSLRLSCAASGSTFKGYAMGWYRQAPGKERELVAAITWSSGRTYYADSVKGRFTISRDNAKNTVYLQMNSLKPEDTAVYYCAAKSRRTRRSYYWGQGTQVTVSS,high polyreactivity
17,QVQLVESGGGLVQAGGSLRLSCAASGSTFKIYAMGWYRQAPGKERELVAVITSGGRTNYADSGKGRFTISRDNAKNTVYLQMNSLKPEDTAVYYCARGRSIHSSNRLEYWGQGTQVTVSS,high polyreactivity
18,QVQLVESGGGLVQAGGSLRLSCAASGSTFKKYVMGWYRQAPGKERELVAAISSTGRTNYADSVKGRFTISRDNAKNTVYLQMNSLKPEDTAVYYCAKRYRKYSLGPPGNDYWGQGTQVTVSS,high polyreactivity
19,QVQLVESGGGLVQAGGSLRLSCAASGSTFKLYAMGWYRPAPGKERELVAAITRSGTRTYYADSVKGRFTISRDNAKNTVYLQMNSLKPEDTAVYYCAADGYRISGYDYWGQGTQVTVSS,high polyreactivity
20,QVQLVESGGGLVQAGGSLRLSCAASGSTFKPNVMGWYRPAPGKERELVAAITSTDDRTYYADSVKGRFTISRDNAKNTVYLQMNSLKPEDTAVYYCNRPYAWYGYIYNYWGQGTQVTVSS,low polyreactivity
21,QVQLVESGGGLVQAGGSLRLSCAASGSTFKQYTMGWYRQAPGKERELVAAISWSGTSTYYADSVKGRFTISRDNAKNTVYLLMNSLKAEDTAVYYCAAVSYVWQYYYWGQGTQVTVSS,high polyreactivity
